Data as given in patent US20210147574A1 (UNIVERSIT DEGLI STUDI DI FIRENZE, published 2021).

T1: S5-Pore peptide
T1 construct: Peptide of the S5-pore extracellular portion of hERG1; also called S5PORO peptide; peptide S5PORO
T1 peptide: EQPHMDSRIGWLHN

B1: scFv-hERG1-D8Cys (scFv)
scFv: EVQLQQSGPELVKPGASVKISCKTSGYTFTEYTVHWVKQSHGKSLEWIGGINPNGGTTYNQKFKGKATLTIDKSSSSAFMELRSLTSEDSAVYYCATGWGPDYWGQGTTLTVSSAKTTPPSVYPLAPGSSGGGGSGGGGSGGSALDIVLTQSPLTLSVNIGQPASISCKSSQSLLYTNGKTYFNWLLQRPGQSPKRLIYLVSKLDSGVPDRFTGSGSGTDFTLKISRVEAEDLGVYYCAQGTHFPWTFGGGTKLEIKRADAAPTVSAAAEQKLISEEDLNGAA
notes: Clone D8, expressed in Pichia pastoris from pPIC9K with a 6xHis tag; Also tested after conjugation with Alexa 488; also called scFv-hERG1-Cys; anti-hERG1-Cys scFv
B2: scDb-hERG1-Cys-β1 (bispecific antibody)
chain: EAECADEVQLQQSGPELVKPGASVKISCKTSGYTFTEYTVHWVKQSHGKSLEWIGGINPNGGTTYNQKFKGKATLTIDKSSSSAFMELRSLTSEDSAVYYCATGWGPDYWGQGTTLTVSSAKTTPPSVYPLAPGSSDIVMTQTPTTMAASPGDKITITCSVSSIISSNYLHWYSQKPGFSPKLLIYRTSNLASGVPPRFSGSGSGTSYSLTIGTMEAEDVATYYCQQGSDIPLTFGDGTKLDLKRADAAPTVSGGGGSGGGGSGGGGSGGGGSEVKVVESGGGLVKPGGSLKLSCAASGFTFSSYTMSWVRQTPEKRLEWVATISSGGSYTYYPDSVKGRFTISRDKAKNTLYLQMGSLKSEDTAMYYCTRIGYDEDYAMDHWGQGTSVTVSSAKTTPPSVYSALDIVLTQSPLTLSVNIGQPASISCKSSQSLLYTNGKTYFNWLLQRPGQSPKRLIYLVSKLDSGVPDRFTGSGSGTDFTLKISRVEAEDLGVYYCAQGTHFPWTFGGGTKLEIKRADAAPTVSAAAEQKLISEEDLNGAPRHHHHHHHH

Tests used:
[1] = target: T2, hERG1 (human, UniProt Q12809 1-1159); experiment: immunofluorescence on fixed and live HEK293-hERG1 cells, intensity by ImageJ
T2 construct: whole, on cells; also called human ether-a-go-go-related gene 1 potassium channel; hERG1 antigen
Experimental: Then an immunofluorescence analysis was performed using scFv-hERG1-G3 and scFv-hERG1-D8Cys on fixed cells, to determine the immunoreactivity of the two antibodies. […] Data analysis obtained using ImageJ Software is reported in the graphs reported in panel C.
Cells were seeded O/N on glass coverslips and then washed once with PBS and fixed with 4% paraformaldeide for 20 min at room temperature. Blocking was performed with 10% BSA for 2 h at room temperature. Antibody incubation was performed using scFv-hERG1-G3, scFv-hERG1-D8Cys, diluted 1:20 in blocking solution and incubated for 2 and half hours, followed by anti-His (1:250; Abcam) O/N incubation in blocking solution. The following day, cells were washed three times with PBS and incubated with anti-mouse Alexa488 antibody (Invitrogen) for 1 h. Whereas, scFv-hERG1-G3-Alexa488 and scFv-hERG1-D8Cys-Alexa488, diluted 1:20 in blocking solution, were incubated O/N at 4° C.
Cells were grown O/N on 60 mm plates (Sarstedt) using an agarose (15 g/L) ring in order to isolate cells and minimize the volumes of reagents needed for incubations. Cells were incubated with scFv-hERG1-G3-Alexa488 and scFv-hERG1-D8Cys-Alexa488 diluted 1:20 in complete culture medium in a 37° C. incubator with 5% C02 for 4 h. Rivelation was performed using Hoechst, as previously described. Cells were visualized on a inverted light microscopy (Nikon, Eclipse TE300).

[2] = target: T1, S5-Pore peptide; experiment: binding to immobilized antigen (method section: ELISA on plates coated with S5-Pore peptide)
Experimental: To evaluate if the two engineered antibodies, scFv-hERG1-G3 and scFv-hERG1-D8Cys, have still the ability to bind the antigen and afterwards to investigate the different affinity of the two antibodies ELISA assays were performed using plates coated with S5-Pore peptide (sequence: […]), towards which the antibody is directed. This peptide is the same we used to screen anti-hERG1 A7 antibody.

[3] = target: T2, hERG1; experiment: cell-based or functional assay

T2 sequence (Q12809 whole entry): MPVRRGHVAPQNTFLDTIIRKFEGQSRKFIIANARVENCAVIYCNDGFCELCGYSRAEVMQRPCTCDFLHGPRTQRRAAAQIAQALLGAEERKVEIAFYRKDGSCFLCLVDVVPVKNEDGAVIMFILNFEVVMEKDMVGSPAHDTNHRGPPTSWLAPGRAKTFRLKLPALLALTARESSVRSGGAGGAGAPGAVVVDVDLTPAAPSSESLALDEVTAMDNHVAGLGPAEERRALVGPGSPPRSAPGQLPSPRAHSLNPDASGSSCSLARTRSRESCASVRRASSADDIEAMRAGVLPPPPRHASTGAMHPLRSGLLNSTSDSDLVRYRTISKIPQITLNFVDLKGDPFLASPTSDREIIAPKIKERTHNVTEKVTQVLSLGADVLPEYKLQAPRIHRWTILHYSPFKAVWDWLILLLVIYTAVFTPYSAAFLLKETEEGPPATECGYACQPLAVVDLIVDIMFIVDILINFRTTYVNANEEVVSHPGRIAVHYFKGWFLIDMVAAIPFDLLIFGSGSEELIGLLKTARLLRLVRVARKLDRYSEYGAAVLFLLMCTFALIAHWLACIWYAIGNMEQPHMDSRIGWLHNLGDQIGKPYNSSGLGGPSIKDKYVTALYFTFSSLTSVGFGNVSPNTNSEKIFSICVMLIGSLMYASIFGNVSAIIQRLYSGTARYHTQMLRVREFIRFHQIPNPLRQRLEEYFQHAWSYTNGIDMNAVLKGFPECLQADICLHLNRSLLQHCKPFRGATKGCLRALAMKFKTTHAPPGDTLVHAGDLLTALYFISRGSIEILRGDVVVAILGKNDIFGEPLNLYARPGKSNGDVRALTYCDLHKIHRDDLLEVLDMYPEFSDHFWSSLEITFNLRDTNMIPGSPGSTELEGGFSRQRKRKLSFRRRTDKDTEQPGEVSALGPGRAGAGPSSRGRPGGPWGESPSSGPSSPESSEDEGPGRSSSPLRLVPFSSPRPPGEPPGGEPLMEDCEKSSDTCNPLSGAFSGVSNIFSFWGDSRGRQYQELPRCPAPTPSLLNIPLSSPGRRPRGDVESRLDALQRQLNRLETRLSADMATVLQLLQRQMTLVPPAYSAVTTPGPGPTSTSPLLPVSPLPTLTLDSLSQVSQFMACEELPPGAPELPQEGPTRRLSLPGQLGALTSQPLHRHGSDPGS

Binder	binding result [1]	binding result [2]	IC50, cell viability of MDA-MB 231 cells [3]	IC50, cell viability of PANC-1 cells [3]
B1	binds	binds	–	–
B2	–	–	42 mg/L	24 mg/L
